Data: PMC12041529

Assay: western blot, co-transfected HEK293T
Settings: glycan lost; control: Flag-GPNMB (WT)

B1: glycoprotein nonmetastatic melanoma protein B (GPNMB): GPNMB296Q (protein)
parent chain: MECLYYFLGFLLLAARLPLDAAKRFHDVLGNERPSAYMREHNQLNGWSSDENDWNEKLYPVWKRGDMRWKNSWKGGRVQAVLTSDSPALVGSNITFAVNLIFPRCQKEDANGNIVYEKNCRNEAGLSADPYVYNWTAWSEDSDGENGTGQSHHNVFPDGKPFPHHPGWRRWNFIYVFHTLGQYFQKLGRCSVRVSVNTANVTLGPQLMEVTVYRRHGRAYVPIAQVKDVYVVTDQIPVFVTMFQKNDRNSSDETFLKDLPIMFDVLIHDPSHFLNYSTINYKWSFGDNTGLFVSTNHTVNHTYVLNGTFSLNLTVKAAAPGPCPPPPPPPRPSKPTPSLATTLKSYDSNTPGPAGDNPLELSRIPDENCQINRYGHFQATITIVEGILEVNIIQMTDVLMPVPWPESSLIDFVVTCQGSIPTEVCTIISDPTCEITQNTVCSPVDVDEMCLLTVRRTFNGSGTYCVNLTLGDDTSLALTSTLISVPDRDPASPLRMANSALISVGCLAIFVTVISLLVYKKHKEYNPIENSPGNVVRSKGLSVFLNRAKAVFFPGNQEKDPLLKNQEFKGVS
- other: SNAP29 protein level: decreases
